Measurements published in publication PMC6733935, “A convenient and efficient total solid-phase synthesis of DOTA-functionalized tumor-targeting peptides for PET imaging of cancer” (EJNMMI Research, 2019).
Numbered stars: 1 amine (or outer) side, 2 acyl side, 3 side chain; on linkers, the order of the positions; unused ones are H or OH. Square brackets hold non-standard residues; d marks the D form. Peptide text beside a SMILES is read from it. * marks the point of attachment. DOTA = O=C(O)CN1CCN(CC(=O)O)CCN(CC(=O)*)CCN(CC(=O)O)CC1; Cha = N[C@@H](CC1CCCCC1)C(=O)O; X1 = O=C(CCC(=O)[*:2])CN[*:1]; Nle = CCCC[C@H](N)C(=O)O

Assays:
[1] = assay type: physicochemical
Procedure: For lipophilicity determination, each HPLC-purified radiopeptide (~ 20 μL, ∼ 25 μCi) was added into a glass tube containing an equal volume mixture of n-octanol and water (1 mL each). The samples were vigorously vortexed for 5 min and subsequently centrifuged (5000 rpm, 5 min) to yield two immiscible layers. Duplicate samples (100 μL) from each layer were carefully taken (to avoid cross-contamination between the layers) for radioactivity measurement using a γ-counter. Partition coefficient was determined by the function: partition coefficient = Log10 (radioactivity in octanol layer/radioactivity in aqueous layer).

[2] = biological target: T1, BN/GRP receptor-positive MDA-MB-231 human breast cancer cells (Homo sapiens, UniProt P30550); assay: Saturation binding assay on MDA-MB-231 cells; settings: n = 3-5 experiments
T1 construct: BN/GRP receptor-positive MDA-MB-231, MCF7, T47D human breast cancer, and PC3 human prostate cancer lines; host or cells: MDA-MB-231, MCF7, T47D (human breast cancer), PC3 (human prostate cancer); intact cells
Procedure: The cell binding of ^68Ga-radiolabeled peptides into BN/GRP receptor-positive MDA-MB-231, MCF7, T47D human breast cancer, and PC3 human prostate cancer lines (American Type Culture Collection, Rockville, MD, USA) was performed according to the method described previously. In brief, ∼ 300,000 cells (in 300 μL in low-serum media) were incubated with various amounts of radiopeptides, ranging between 0.1 and 25 nM of peptide (prepared from the serial dilutions of HPLC-purified radiopeptides), in duplicate for 60 min at room temperature. The initial concentrations of ^68Ga-labeled peptides were determined according to a well-established HPLC technique with simultaneous detection by UV absorbance. As the amount of BN peptide in the reaction mixture was too small to be detected by UV absorption at 220 nm, the radioactive peptide chromatograms from the HPLC analysis were compared (with UV chromatograms) with those of known concentrations of the corresponding nonradioactive peptides for the mass determination. Incubation was terminated by dilution with cold saline (300 μL) and the cells were pelleted by centrifugation. The cell pellets was then rapidly washed with cold saline to remove any unbound peptide and centrifuged to collect supernatants. Radioactivity in the cell pellet and the washings was measured in a γ-counter. Non-specific binding was determined in the presence of ~ 200-fold molar excess of unlabeled BN peptide. Specific binding is calculated by subtracting the non-specifically bound radioactivity from that of the total binding. The dissociation constant (Kd) was calculated using a plot of cell bound activity versus the concentration of the radioligand using GraphPad Prism software (GraphPad Software Inc., San Diego, CA, USA).

in vivo [3] = assay: in vivo; set-up: species or system Balb/c mice; settings: Balb/c, mouse, iv
Procedure: Approval for the animal protocol used in this study was obtained from the Institutional Animal Care and Use Committee. Animal studies were conducted according to the international regulations governing the safe and proper use of laboratory animals. In vivo biodistribution were performed on healthy Balb/c mice (n = 3–5 in each group, body weight 19–22 g) at 1 and 2 h after intravenous injection of the HPLC-purified radiopeptide (100 μL, 15–20 μCi, total peptide dose ~ 20 ng) via the lateral tail vein. The mice were sacrificed by cervical dislocation at specified time points and blood samples were withdrawn with a syringe from the heart. Major organs such as lungs, stomach, spleen, pancreas, intestines, liver, kidneys, etc. were isolated, weighed, and radioactivity in each organs and tissues were measured using a γ-scintillation counter. Uptake of radioactivity in the tissues and organs was expressed as the percent injected dose per gram (% ID/g) of tissue/organ, which was calculated by comparison with standard solutions representing 10% of the injected dose per animal. For the clearance studies, radioactivity in the urine with bladder and feces is expressed as the percent of the injected dose per tissue (% ID). Values are expressed as mean ± SD for a group of 3-5 animals at each time point.

in vivo [4] = assay type: in vivo, nude mice; settings: female, nude, mouse, in vivo, total radioactivity
Method in brief: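 Female mice bore subcutaneous left-thigh xenografts of ~5 million MDA-MB-231 cells in PBS, grown 4-6 weeks to 200-300 mg. Animals received 20-30 μCi of 68Ga-labelled peptide and were sacrificed at set time points; tumour and organ uptake measured by γ-counting.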

[5] = total radioactivity, %ID excreted in Feces
[6] = total radioactivity, Uptake in Blood
[7] = total radioactivity, Uptake in Bone
[8] = total radioactivity, Uptake in Intestines (measured without their contents)
[9] = total radioactivity, Uptake in Kidneys
[10] = total radioactivity, Uptake in Pancreas
[11] = total radioactivity, Uptake in Spleen
[12] = total radioactivity, Uptake in Stomach
[13] = Radioactivity in Urine + bladder
[14] = Uptake in Intestines (measured without their contents)

**Q.** For `CCCC[C@H](NC(=O)[C@H](Cc1c[nH]cn1)NC(=O)[C@H](CC1CCCCC1)NC(=O)[C@@H](NC(=O)[C@H](C)NC(=O)[C@H](Cc1c[nH]c2ccccc12)NC(=O)[C@H](CCC(N)=O)NC(=O)[C@H](CS)NC(=O)CNC(=O)CNC(=O)CCC(=O)CNC(=O)CN1CCN(CC(=O)O)CCN(CC(=O)O)CCN(CC(=O)O)CC1)C(C)C)C(=O)N[C@@H](CCSC)C(N)=O` [^68Ga-DOTA-ALA-BN Cyclen, metal not drawn] ({DOTA}-[X1]GGCQWAV[Cha]H[Nle]M-NH2), which “Log P (octanol/water)” value [1] is on record?
**A.** The value was “− 0.80 ± 0.05”.

**Q.** And the “Bmax (apparent number of binding sites per cell)” value ([2]; SD < 15%)?
**A.** Its value is 1.02 × 10^5 sites/cell.

**Q.** And the Kd ([2]; ~300,000 cells, 0.1-25 nM radiopeptide, 60 min, room temperature, mean ± SD)?
**A.** Its Kd is 0.0151 ± 0.00312 µM.

**Q.** What about the “Uptake in Lungs” value (in vivo [3]; 1 h) of the same molecule?
**A.** Its value is 1.39 ± 0.30 %ID/g.

**Q.** And the “%ID excreted in Urine” value (in vivo [3]; 2 h)?
**A.** Its value is 46.0 ± 9.12 %ID.

**Q.** And the “Uptake in Liver” value (in vivo [3]; 2 h)?
**A.** The value was 1.75 ± 0.26 %ID/g.

**Q.** And the “Uptake in Lungs” value (in vivo [3]; 2 h)?
**A.** The value was 0.98 ± 0.23 %ID/g.

**Q.** What about the dose excreted at 1 h (in vivo [3]; [5]) of the same molecule?
**A.** Its dose excreted at 1 h is 1.07 ± 0.17%.

**Q.** And the dose excreted at 2 h (in vivo [3]; [5])?
**A.** Its dose excreted at 2 h is 0.91 ± 0.14%.

**Q.** What about the dose excreted at 1 h (in vivo [3]; total radioactivity, %ID excreted in Urine) of the same molecule?
**A.** The dose excreted at 1 h was 53 ± 6.8%.

**Q.** And the tissue uptake at 1 h (in vivo [3]; [6])?
**A.** Its tissue uptake at 1 h is 0.8 ± 0.16 %ID/g.

**Q.** And the tissue uptake at 2 h (in vivo [3]; [6])?
**A.** Its tissue uptake at 2 h is 0.51 ± 0.12 %ID/g.

**Q.** What about the tissue uptake at 1 h (in vivo [3]; [7]) of the same molecule?
**A.** Its tissue uptake at 1 h is 0.24 ± 0.04 %ID/g.

**Q.** And the tissue uptake at 2 h (in vivo [3]; [7])?
**A.** The tissue uptake at 2 h was 0.15 ± 0.02 %ID/g.

**Q.** What about the tissue uptake at 1 h (in vivo [3]; [8]) of the same molecule?
**A.** The tissue uptake at 1 h was 0.88 ± 0.15 %ID/g.

**Q.** What about the tissue uptake at 2 h (in vivo [3]; [8]) of the same molecule?
**A.** The tissue uptake at 2 h was 0.73 ± 0.12 %ID/g.

**Q.** What about the tissue uptake at 1 h (in vivo [3]; [9]) of the same molecule?
**A.** Its tissue uptake at 1 h is 5.89 ± 1 %ID/g.

**Q.** And the tissue uptake at 2 h (in vivo [3]; [9])?
**A.** The tissue uptake at 2 h was 3.05 ± 0.41 %ID/g.

**Q.** What about the tissue uptake at 1 h (in vivo [3]; total radioactivity, Uptake in Liver) of the same molecule?
**A.** Its tissue uptake at 1 h is 2.3 ± 0.37 %ID/g.

**Q.** What about the tissue uptake at 1 h (in vivo [3]; [10]) of the same molecule?
**A.** The tissue uptake at 1 h was 1.54 ± 0.31 %ID/g.

**Q.** What about the tissue uptake at 2 h (in vivo [3]; [10]) of the same molecule?
**A.** The tissue uptake at 2 h was 0.89 ± 0.12 %ID/g.

**Q.** What about the tissue uptake at 1 h (in vivo [3]; [11]) of the same molecule?
**A.** Its tissue uptake at 1 h is 0.1 ± 0.01 %ID/g.

**Q.** And the tissue uptake at 2 h (in vivo [3]; [11])?
**A.** The tissue uptake at 2 h was 0.08 %ID/g.

**Q.** What about the tissue uptake at 1 h (in vivo [3]; [12]) of the same molecule?
**A.** Its tissue uptake at 1 h is 1.5 ± 0.37 %ID/g.

**Q.** And the tissue uptake at 2 h (in vivo [3]; [12])?
**A.** Its tissue uptake at 2 h is 0.44 ± 0.1 %ID/g.

**Q.** What about the dose excreted at 1 h (in vivo [4]; [13]) of the same molecule?
**A.** Its dose excreted at 1 h is 62 ± 6.28%.

**Q.** What about the dose excreted at 2 h (in vivo [4]; [13]) of the same molecule?
**A.** The dose excreted at 2 h was 71 ± 9.68%.

**Q.** What about the tissue uptake at 1 h (in vivo [4]; Uptake in Blood) of the same molecule?
**A.** The tissue uptake at 1 h was 0.79 ± 0.13 %ID/g.

**Q.** And the tissue uptake at 2 h (in vivo [4]; Uptake in Blood)?
**A.** The tissue uptake at 2 h was 0.37 ± 0.1 %ID/g.

**Q.** And the tissue uptake at 1 h (in vivo [4]; [14])?
**A.** Its tissue uptake at 1 h is 0.9 ± 0.12 %ID/g.

**Q.** And the tissue uptake at 2 h (in vivo [4]; [14])?
**A.** The tissue uptake at 2 h was 0.6 ± 0.1 %ID/g.

**Q.** And the tissue uptake at 1 h (in vivo [4]; Uptake in Kidneys)?
**A.** Its tissue uptake at 1 h is 5.94 ± 0.63 %ID/g.

**Q.** And the tissue uptake at 2 h (in vivo [4]; Uptake in Kidneys)?
**A.** Its tissue uptake at 2 h is 3.2 ± 0.32 %ID/g.

**Q.** What about the tissue uptake at 1 h (in vivo [4]; Uptake in Liver) of the same molecule?
**A.** The tissue uptake at 1 h was 1.4 ± 0.26 %ID/g.

**Q.** And the tissue uptake at 2 h (in vivo [4]; Uptake in Liver)?
**A.** The tissue uptake at 2 h was 1.12 ± 0.19 %ID/g.

**Q.** And the tissue uptake at 2 h (in vivo [4]; Uptake in Lungs)?
**A.** The tissue uptake at 2 h was 0.67 ± 0.13 %ID/g.

**Q.** And the tissue uptake at 1 h (in vivo [4]; Uptake in Muscle)?
**A.** The tissue uptake at 1 h was 0.3 ± 0.06 %ID/g.

**Q.** And the tissue uptake at 2 h (in vivo [4]; Uptake in Muscle)?
**A.** The tissue uptake at 2 h was 0.21 ± 0.03 %ID/g.

**Q.** And the tissue uptake at 1 h (in vivo [4]; Uptake in Pancreas)?
**A.** Its tissue uptake at 1 h is 1.05 ± 0.12 %ID/g.

**Q.** And the tissue uptake at 2 h (in vivo [4]; Uptake in Pancreas)?
**A.** The tissue uptake at 2 h was 0.88 ± 0.11 %ID/g.

**Q.** What about the tissue uptake at 1 h (in vivo [4]; Uptake in Spleen) of the same molecule?
**A.** The tissue uptake at 1 h was 0.26 ± 0.03 %ID/g.

**Q.** And the tissue uptake at 1 h (in vivo [4]; Uptake in Stomach)?
**A.** Its tissue uptake at 1 h is 0.87 ± 0.19 %ID/g.

**Q.** And the tissue uptake at 2 h (in vivo [4]; Uptake in Stomach)?
**A.** The tissue uptake at 2 h was 0.46 ± 0.05 %ID/g.
